Here are results for twelve molecules from US20240190989A1 (BEIGENE SWITZERLAND, published 2024).

Test [1] has as its target T1, human CD137 ECD-mIgG2a (human).
T1 construct: ECD 24-183 of huCD137 fused to mouse IgG2a Fc; also called huCD137-mIgG2a; huCD137
In words: SPR, A-CEAxCD137 format.

For test [2], the target named is T1, human CD137 ECD-mIgG2a. In words: SPR, Fc-fusion VH captured. A general note: Surface plasmon resonance follows binding to a sensor surface in real time, without labels.
Procedure: Characterization of anti-huCD137 VH domain antibodies were made by SPR assays using BIAcore™ T-200 (GE Life Sciences). Briefly, anti-human IgG (Fc) antibody was immobilized on an activated CM5 biosensor chip (Cat.: BR100839, GE Life Sciences). Anti-huCD137 domain antibodies were flowed over the chip surface and captured by anti-human IgG (Fc) antibody. […] The equilibrium dissociation constant (KD) was calculated as the ratio koff/kₒₙ.
Affinity comparison on CD137 affinity matured variants was made by SPR assays using BIAcore™ T-200 (GE Life Sciences) and flow cytometry as described.

T1 sequence (chain, as listed by the source limits assumed): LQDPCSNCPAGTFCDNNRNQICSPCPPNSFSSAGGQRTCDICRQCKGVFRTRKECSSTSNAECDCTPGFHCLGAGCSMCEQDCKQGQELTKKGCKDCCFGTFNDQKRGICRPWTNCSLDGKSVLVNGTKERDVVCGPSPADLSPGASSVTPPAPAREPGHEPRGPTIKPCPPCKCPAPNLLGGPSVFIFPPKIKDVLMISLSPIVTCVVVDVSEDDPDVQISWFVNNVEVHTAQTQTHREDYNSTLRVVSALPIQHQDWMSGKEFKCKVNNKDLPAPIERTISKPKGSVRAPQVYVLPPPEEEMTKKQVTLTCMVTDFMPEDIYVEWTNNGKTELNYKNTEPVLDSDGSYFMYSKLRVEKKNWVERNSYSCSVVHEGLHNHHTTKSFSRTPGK

B1: Format A BGA-3285 (bispecific antibody, human IgG1, kappa)
heavy: QVQLVQSGAEVKKPGASVKVSCKASGYIFTSYYLHWVRQAPGQGLEWIGYINPQTGKTSYAQKFQGRVTMTRDTSTSTVYMELSSLRSEDTAVYYCAREYGNYNYPLDYWGQGTLVTVSSASTKGPSVFPLAPSSKSTSGGTAALGCLVKDYFPEPVTVSWNSGALTSGVHTFPAVLQSSGLYSLSSVVTVPSSSLGTQTYICNVNHKPSNTKVDKKVEPKSCDKTHTCPPCPAPPAAGPSVFLFPPKPKDTLMISRTPEVTCVVVDVSHEDPEVKFNWYVDGVEVHNAKTKPREEQYNSTYRVVSVLTVLHQDWLNGKEYKCKVSNKALAAPIEKTISKAKGQPREPQVYTLPPSREEMTKNQVSLTCLVKGFYPSDIAVEWESNGQPENNYKTTPPVLDSDGSFFLYSKLTVDKSRWQQGNVFSCSVMHEALHNHYTQKSLSLSPGKGGGGSEVQLLESGGGLVQPGGSLRLSCAASGFTISAEDVGWVRQAPGKGLEWVSAILDFGGSTYYAESVKGRFTISRDNAKNTLYLQMSSLRAEDTAVYYCARVVYHAGGGVTFDTRGQGTQVTVSS
light: DIQMTQSPSSLSASVGDRVTITCRASENQYGYLAWYQQKPGKVPKLLIYNYKNLVEGVPSRFSGSGSGTDFTLTISSLQPEDVATYYCQHHLGTPYTFGQGTKVEIKRTVAAPSVFIFPPSDEQLKSGTASVVCLLNNFYPREAKVQWKVDNALQSGNSQESVTEQDSKDSTYSLSSTLTLSKADYEKHKVYACEVTHQGLSSPVTKSFNRGEC
B1: binding with human CD137 ECD-mIgG2a [1] was put at a Kd of 0.798 µM.

B2: Format A BGA-3953 (bispecific antibody, human IgG1, kappa)
heavy: QVQLVQSGAEVKKPGASVKVSCKASGYIFTSYYLHWVRQAPGQGLEWIGYINPQTGKTSYAQKFQGRVTMTRDTSTSTVYMELSSLRSEDTAVYYCAREYGNYNYPLDYWGQGTLVTVSSASTKGPSVFPLAPSSKSTSGGTAALGCLVKDYFPEPVTVSWNSGALTSGVHTFPAVLQSSGLYSLSSVVTVPSSSLGTQTYICNVNHKPSNTKVDKKVEPKSCDKTHTCPPCPAPPAAGPSVFLFPPKPKDTLMISRTPEVTCVVVDVSHEDPEVKFNWYVDGVEVHNAKTKPREEQYNSTYRVVSVLTVLHQDWLNGKEYKCKVSNKALAAPIEKTISKAKGQPREPQVYTLPPSREEMTKNQVSLTCLVKGFYPSDIAVEWESNGQPENNYKTTPPVLDSDGSFFLYSKLTVDKSRWQQGNVFSCSVMHEALHNHYTQKSLSLSPGKGGGGSEVQLLESGGGLVQPGGSLRLSCAASGFTVSAEDVGWVRQAPGKGLEWVSAILDSGGSTYYAESVKGRFTISRDNAKNTLYLQMSSLRAEDTAVYYCARIVYHAGGGVTFDTRGQGTQVTVSS
light: DIQMTQSPSSLSASVGDRVTITCRASENQYGYLAWYQQKPGKVPKLLIYNYKNLVEGVPSRFSGSGSGTDFTLTISSLQPEDVATYYCQHHLGTPYTFGQGTKVEIKRTVAAPSVFIFPPSDEQLKSGTASVVCLLNNFYPREAKVQWKVDNALQSGNSQESVTEQDSKDSTYSLSSTLTLSKADYEKHKVYACEVTHQGLSSPVTKSFNRGEC
With B2, in the test with human CD137 ECD-mIgG2a [1], the dissociation constant (Kd) (in general, the concentration at which binding is half-saturated) was 0.115 µM. Against the preceding molecule, the Kd is about 6.9-fold lower.

B3: BGA-3285-mutFc (Fc fusion)
chain: EVQLLESGGGLVQPGGSLRLSCAASGFTISAEDVGWVRQAPGKGLEWVSAILDFGGSTYYAESVKGRFTISRDNAKNTLYLQMSSLRAEDTAVYYCARVVYHAGGGVTFDTRGQGTQVTVSSGGGGSDKTHTCPPCPAPPAAGPSVFLFPPKPKDTLMISRTPEVTCVVVDVSHEDPEVKFNWYVDGVEVHNAKTKPREEQYNSTYRVVSVLTVLHQDWLNGKEYKCKVSNKALAAPIEKTISKAKGQPREPQVYTLPPSREEMTKNQVSLTCLVKGFYPSDIAVEWESNGQPENNYKTTPPVLDSDGSFFLYSKLTVDKSRWQQGNVFSCSVMHEALHNHYTQKSLSLSPGK
On to B3, for which binding in the test with human CD137 ECD-mIgG2a [2] was characterised by a dissociation constant (Kd) of 0.186 µM.

B4: BGA-7916-mutFc (Fc fusion)
chain: EVQLLESGGGLVQPGGSLRLSCAASGFTVSAEDVGWVRQAPGKGLEWVSAILDSGGSTYYAESVKGRFTISRDNAKNTLYLQMSSLRAEDTAVYYCARVVYHAGGGVTYDTRGQGTQVTVSSGGGGSDKTHTCPPCPAPPAAGPSVFLFPPKPKDTLMISRTPEVTCVVVDVSHEDPEVKFNWYVDGVEVHNAKTKPREEQYNSTYRVVSVLTVLHQDWLNGKEYKCKVSNKALAAPIEKTISKAKGQPREPQVYTLPPSREEMTKNQVSLTCLVKGFYPSDIAVEWESNGQPENNYKTTPPVLDSDGSFFLYSKLTVDKSRWQQGNVFSCSVMHEALHNHYTQKSLSLSPGK
B4 registered a Kd in the test with human CD137 ECD-mIgG2a [2] of 0.0877 µM.

B5: BGA-3953-mutFc (Fc fusion)
chain: EVQLLESGGGLVQPGGSLRLSCAASGFTVSAEDVGWVRQAPGKGLEWVSAILDSGGSTYYAESVKGRFTISRDNAKNTLYLQMSSLRAEDTAVYYCARIVYHAGGGVTFDTRGQGTQVTVSSGGGGSDKTHTCPPCPAPPAAGPSVFLFPPKPKDTLMISRTPEVTCVVVDVSHEDPEVKFNWYVDGVEVHNAKTKPREEQYNSTYRVVSVLTVLHQDWLNGKEYKCKVSNKALAAPIEKTISKAKGQPREPQVYTLPPSREEMTKNQVSLTCLVKGFYPSDIAVEWESNGQPENNYKTTPPVLDSDGSFFLYSKLTVDKSRWQQGNVFSCSVMHEALHNHYTQKSLSLSPGK
As to B5, the Kd with human CD137 ECD-mIgG2a [2] was 0.0483 µM.

B6: BGA-5385-mutFc (Fc fusion)
chain: EVQLLESGGGLVQPGGSLRLSCAASGFTLSAEDVGWVRQAPGKGLEWVSAILDHGGSTYYAESVKGRFTISRDNAKNTLYLQMSSLRAEDTAVYYCARVIYHAGGGVTYDYRGQGTQVTVSSGGGGSDKTHTCPPCPAPPAAGPSVFLFPPKPKDTLMISRTPEVTCVVVDVSHEDPEVKFNWYVDGVEVHNAKTKPREEQYNSTYRVVSVLTVLHQDWLNGKEYKCKVSNKALAAPIEKTISKAKGQPREPQVYTLPPSREEMTKNQVSLTCLVKGFYPSDIAVEWESNGQPENNYKTTPPVLDSDGSFFLYSKLTVDKSRWQQGNVFSCSVMHEALHNHYTQKSLSLSPGK
B6 showed a Kd with human CD137 ECD-mIgG2a [2] of 0.1 µM.

B7: BGA-4988-mutFc (Fc fusion)
chain: EVQLLESGGGLVQPGGSLRLSCAASGFTVSAEDVGWVRQAPGKGLEWVSAILDRGGSTYYAESVKGRFTISRDNAKNTLYLQMSSLRAEDTAVYYCARVVYHAGGGVTYDTRGQGTQVTVSSGGGGSDKTHTCPPCPAPPAAGPSVFLFPPKPKDTLMISRTPEVTCVVVDVSHEDPEVKFNWYVDGVEVHNAKTKPREEQYNSTYRVVSVLTVLHQDWLNGKEYKCKVSNKALAAPIEKTISKAKGQPREPQVYTLPPSREEMTKNQVSLTCLVKGFYPSDIAVEWESNGQPENNYKTTPPVLDSDGSFFLYSKLTVDKSRWQQGNVFSCSVMHEALHNHYTQKSLSLSPGK
Regarding B7, binding with human CD137 ECD-mIgG2a [2] was put at a Kd of 1.03 µM.

B8: BGA-9468-mutFc (Fc fusion)
chain: EVQLLESGGGLVQPGGSLRLSCAASGFTVSAEDVGWVRQAPGKGLEWVSAILDSGGSTYYAESVKGRFTISRDNAKNTLYLQMSSLRAEDTAVYYCARVVYHSGGGVTFDLRGQGTQVTVSSGGGGSDKTHTCPPCPAPPAAGPSVFLFPPKPKDTLMISRTPEVTCVVVDVSHEDPEVKFNWYVDGVEVHNAKTKPREEQYNSTYRVVSVLTVLHQDWLNGKEYKCKVSNKALAAPIEKTISKAKGQPREPQVYTLPPSREEMTKNQVSLTCLVKGFYPSDIAVEWESNGQPENNYKTTPPVLDSDGSFFLYSKLTVDKSRWQQGNVFSCSVMHEALHNHYTQKSLSLSPGK
Regarding B8, in the test with human CD137 ECD-mIgG2a [2], the Kd was determined as 0.19 µM.

B9: BGA-3849-mutFc (Fc fusion)
chain: EVQLLESGGGLVQPGGSLRLSCAASGFTLSHEDVGWVRQAPGKGLEWVSAILDSGGSTYYAESVKGRFTISRDNAKNTLYLQMSSLRAEDTAVYYCARYVYHAGGGVTFDTRGQGTQVTVSSGGGGSDKTHTCPPCPAPPAAGPSVFLFPPKPKDTLMISRTPEVTCVVVDVSHEDPEVKFNWYVDGVEVHNAKTKPREEQYNSTYRVVSVLTVLHQDWLNGKEYKCKVSNKALAAPIEKTISKAKGQPREPQVYTLPPSREEMTKNQVSLTCLVKGFYPSDIAVEWESNGQPENNYKTTPPVLDSDGSFFLYSKLTVDKSRWQQGNVFSCSVMHEALHNHYTQKSLSLSPGK
In the test with human CD137 ECD-mIgG2a [2], B9 came in with a Kd of 0.0763 µM.

B10: BGA-9442-mutFc (Fc fusion)
chain: EVQLLESGGGLVQPGGSLRLSCAASGFTISAEDVGWVRQAPGKGLEWVSAILDSGGSTYYAESVKGRFTISRDNAKNTLYLQMSSLRAEDTAVYYCARYVYHAGGGVTFDLRGQGTQVTVSSGGGGSDKTHTCPPCPAPPAAGPSVFLFPPKPKDTLMISRTPEVTCVVVDVSHEDPEVKFNWYVDGVEVHNAKTKPREEQYNSTYRVVSVLTVLHQDWLNGKEYKCKVSNKALAAPIEKTISKAKGQPREPQVYTLPPSREEMTKNQVSLTCLVKGFYPSDIAVEWESNGQPENNYKTTPPVLDSDGSFFLYSKLTVDKSRWQQGNVFSCSVMHEALHNHYTQKSLSLSPGK
As for B10, the Kd with human CD137 ECD-mIgG2a [2] was 0.151 µM.

B11: BGA-8425-mutFc (Fc fusion)
chain: EVQLLESGGGLVQPGGSLRLSCAASGFTLSAEDVGWVRQAPGKGLEWVSAILDSGGSTYYAESVKGRFTISRDNAKNTLYLQMSSLRAEDTAVYYCARVVYHAGGGVTYDYRGQGTQVTVSSGGGGSDKTHTCPPCPAPPAAGPSVFLFPPKPKDTLMISRTPEVTCVVVDVSHEDPEVKFNWYVDGVEVHNAKTKPREEQYNSTYRVVSVLTVLHQDWLNGKEYKCKVSNKALAAPIEKTISKAKGQPREPQVYTLPPSREEMTKNQVSLTCLVKGFYPSDIAVEWESNGQPENNYKTTPPVLDSDGSFFLYSKLTVDKSRWQQGNVFSCSVMHEALHNHYTQKSLSLSPGK
For the molecule B11, the Kd in the test with human CD137 ECD-mIgG2a [2] was determined as 0.0934 µM. Compared with the last molecule, the Kd is about 1.6-fold lower.

B12: BGA-7746-mutFc (Fc fusion)
chain: EVQLLESGGGLVQPGGSLRLSCAASGFTVSAEDVGWVRQAPGKGLEWVSAILDFGGSTYYAESVKGRFTISRDNAKNTLYLQMSSLRAEDTAVYYCARVVYHAGGGVTFDTRGQGTQVTVSSGGGGSDKTHTCPPCPAPPAAGPSVFLFPPKPKDTLMISRTPEVTCVVVDVSHEDPEVKFNWYVDGVEVHNAKTKPREEQYNSTYRVVSVLTVLHQDWLNGKEYKCKVSNKALAAPIEKTISKAKGQPREPQVYTLPPSREEMTKNQVSLTCLVKGFYPSDIAVEWESNGQPENNYKTTPPVLDSDGSFFLYSKLTVDKSRWQQGNVFSCSVMHEALHNHYTQKSLSLSPGK
As for B12, the Kd with human CD137 ECD-mIgG2a [2] turned out to be 0.193 µM. This Kd lies about 2.1-fold higher than the previous one.
